Data as given in publication PMC10883266, “TTLL12 is required for primary ciliary axoneme formation in polarized epithelial cells” (EMBO Reports, 2023).

T1: recombinant GST-Rab19 (UniProt A4D1S5 1-217)
T1 construct: small GTPase Rab19; loaded with GDP or GMP-PNP before the assay; Loaded with GDP or with GMP-PNP (non-hydrolyzable GTP analog); also called GST-Rab19 (GDP); GST-Rab19 (GMP-PNP); source: E. coli BL21 Codon Plus, purified as previously described (Jewett et al, 2021); not shown: GST, N-terminal, kept
T1 sequence (looked up): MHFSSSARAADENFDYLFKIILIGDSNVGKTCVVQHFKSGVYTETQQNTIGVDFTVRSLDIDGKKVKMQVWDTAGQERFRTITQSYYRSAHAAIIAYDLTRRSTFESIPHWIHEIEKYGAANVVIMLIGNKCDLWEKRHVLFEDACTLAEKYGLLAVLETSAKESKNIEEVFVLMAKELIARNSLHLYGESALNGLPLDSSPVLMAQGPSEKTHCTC


Legend:
[1] = biological target: recombinant 6His-TTLL12 (human) (UniProt Q14166); experiment: pull-down; 10 μg (0.18 μM) untagged porcine brain tubulin alone or with 10 μg 6His-TTLL12 in 20 mM HEPES pH 7.4, 150 mM KCl, overnight at 4 °C to prevent polymerization; Ni beads; washes with 300 mM KCl, 0.1% Triton X-100; Coomassie blue staining
recombinant GST-Rab19 = biological target: T1, recombinant GST-Rab19; experiment: pull-down; 10 μg GST-Rab19 loaded with GDP or GMP-PNP + 10 μg 6His-TTLL12 in 20 mM HEPES pH 7.4, 150 mM NaCl, 1% BSA, 1 h room temperature; glutathione beads; washes with 300 mM NaCl, 0.1% Triton X-100; Coomassie blue staining; conditions: both partners purified

| Molecule | fold increase in tubulin co-precipitation with Ni beads over tubulin alone [1] | fold increase in TTLL12 binding over a GST-only control (recombinant GST-Rab19) |
| --- | --- | --- |
| untagged purified porcine brain tubulin (α/β-tubulin heterodimer) (from UniProt P02554 1-445) (complex) | 3 fold | – |
| recombinant 6His-TTLL12 (natural protein, human, UniProt Q14166 1-644, looked up, Tubulin Tyrosine Ligase-Like 12 (TTLL12), human cDNA (pLVX304-hTTLL12); the form rests on the printed cloning primers; also called Tubulin Tyrosine Ligase-Like 12; source: Sf9 cells (baculovirus, pFastBac HTA), purified (nickel beads, dialysed into PBS with 1 mM DTT); not shown: 6His, …) MEAERGPERRPAERSSPGQTPEEGAQALAEFAALHGPALRASGVPERYWGRLLHKLEHEVFDAGEVFGIMQVEEVEEEEDEAAREVRKQQPNPGNELCYKVIVTRESGLQAAHPNSIFLIDHAWTCRVEHARQQLQQVPGLLHRMANLMGIEFHGELPSTEAVALVLEEMWKFNQTYQLAHGTAEEKMPVWYIMDEFGSRIQHADVPSFATAPFFYMPQQVAYTLLWPLRDLDTGEEVTRDFAYGETDPLIRKCMLLPWAPTDMLDLSSCTPEPPAEHYQAILEENKEKLPLDINPVVHPHGHIFKVYTDVQQVASSLTHPRFTLTQSEADADILFNFSHFKDYRKLSQERPGVLLNQFPCENLLTVKDCLASIARRAGGPEGPPWLPRTFNLRTELPQFVSYFQQRERWGEDNHWICKPWNLARSLDTHVTKSLHSIIRHRESTPKVVSKYIESPVLFLREDVGKVKFDIRYIVLLRSVRPLRLFVYDVFWLRFSNRAFALNDLDDYEKHFTVMNYDPDVVLKQVHCEEFIPEFEKQYPEFPWTDVQAEIFRAFTELFQVACAKPPPLGLCDYPSSRAMYAVDLMLKWDNGPDGRRVMQPQILEVNFNPDCERACRYHPTFFNDVFSTLFLDQPGGCHVTCLV | – | ~5 fold |
